Biological target: T1, SPL15 SBP domain (His-tagged) (Arabidopsis thaliana, UniProt Q9M2Q6 50-139)
T1 sequence: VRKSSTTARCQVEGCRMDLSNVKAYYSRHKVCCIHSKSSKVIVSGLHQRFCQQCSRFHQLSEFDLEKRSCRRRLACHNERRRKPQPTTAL
Test: EMSA; ~500 ng protein, ~20 fmol DNA; displaced by 100-fold unlabeled N1; 10 mM Tris pH 7.5, 50 mM KCl, 5 mM MgCl (so in the source), 5 mM DTT, 2.5% glycerol, 0.05% NP-40, 25 C 30 min; 7.5% gel in 0.5x TBE at 4 C
Conditions: protein: recombinant; tags: His tag (pET28a, BamHI/SalI; 16.3 kD fusion); label: digoxigenin (DIG Gel Shift kit); blunt

B1: miR156b promoter 46-mer (R156b-bx1) (dsDNA)
DNA 1: TAATTAGTGAAACTGTACAATGTACAATGTACCAATGCCATTAATG
DNA 2: CATTAATGGCATTGGTACATTGTACATTGTACAGTTTCACTAATTA
  binding result: binds

— article PMC3520712, “Arabidopsis mutant sk156 reveals complex regulation of SPL15 in a miR156-controlled gene network”
